# Measured values from patent US20150306011.
# B1: PCAF histone acetylase enzyme (protein)
# chain: MLEEEVYSQNSPIWDQDFLSASSRTSQLGIQTVINPPPVAGTISYNSTSSSLEQPNAGSSSPACKASSGLEANPGEKRKMTDSHVLEEAKKPRVMGDIPMELINEVMSTITDPAAMLGPETNFLSAHSARDEAARLEERRGVIEFHVVGNSLNQKPNKKILMWLVGLQNVFSHQLPRMPKEYITRLVFDPKHKTLALIKDGRVIGGICFRMFPSQGFTEIVFCAVTSNEQVKGYGTHLMNHLKEYHIKHDILNFLTYADEYAIGYFKKQGFSKEIKIPKTKYVGYIKDYEGATLMGCELNPRIPYTE
# Target: histone H3 (acid extracted histones from untreated HeLa cells), P68431
protein,measurement,value
B1,"histone H3 acetylation in PCAF HAT reaction (immunoblot, diacetylated H3 Ac-Lys9+Ac-Lys14)",35-fold increase
